Self-cleavage data for 32 variants are collected here from the RNAGym collection of RNA variant scans (doi:10.7554/elife.80360).

B1: HDV Ribozyme (parent)
chain: GGCCGGCAUGGUCCCAGCCUCCUCGCUGGCGCCGGCUGGGCAACAUUCCGAGGGGACCGUCCCCUCGGUAAUGGCGAAUGGGACCCA

The series covers variants of B1. Kind of series: self-cleavage, relative activity (ratio to wild type); higher = more cleavage; co-transcriptional.
Consider AGCCGGCAUGGUCCCAGCCUCCUCGCUGGCGCCGGCUGGGCAAGAUUCCGAGGGGACCGUCCCCUCGGUAAUGGCGAAUGGGACCCA [G1A C44G], for which the self-cleavage stood at 0.138.

For AGGCGGCAUGGUCCCAGCCUCCUCGCUGGCGCCGGCUGGGCAACAUUCCGAGGGGACCGUCCCCUCGGUAAUGGCGAAUGGGACCCA [G1A C3G], the self-cleavage was determined as 0.227.

Take AGACGGCAUGGUCCCAGCCUCCUCGCUGGCGCCGGCUGGGCAACAUUCCGAGGGGACCGUCCCCUCGGUAAUGGCGAAUGGGACCCA [G1A C3A]: the self-cleavage turned out to be 0.0627.

AGCCGGCAUGGUCCCAGCCUCCUCGCUGGCGCCGGCUGGGCAACAUUCCGAGGGGACCGUCCUCUCGGUAAUGGCGAAUGGGACCCA [G1A C63U]: the self-cleavage amounted to 0.147.

As for AGCCGGCAUGGUCCCAGCCUCCUCGCUGGCGCCGGCUGGGCAACAUUCCGAGGGGACCGUCCCCUCGGUAAUGGCGAAUGGGACCUA [G1A C86U], the self-cleavage is 0.19.

As to AGCCGGCAUGGUCCCAGCCUCCUCGCUGGCGCCGGCUGGGCAACAUUCCGAGGGGACCGUCCCCUCGGUAAUGGCGAAUGGGACCAA [G1A C86A], the self-cleavage amounted to 0.119.

For AGCCGGCAUGGUCCCAGCCUCCUGGCUGGCGCCGGCUGGGCAACAUUCCGAGGGGACCGUCCCCUCGGUAAUGGCGAAUGGGACCCA [G1A C24G], the self-cleavage turned out to be 0.0702.

Consider AGCCGGCAUGCUCCCAGCCUCCUCGCUGGCGCCGGCUGGGCAACAUUCCGAGGGGACCGUCCCCUCGGUAAUGGCGAAUGGGACCCA [G1A G11C], for which the self-cleavage was 0.172.

Regarding AGCCGGCAUGGUCCCAGCCUCCUCGCUGGCGCCGGCUGGGCAACAUUCCGAGAGGACCGUCCCCUCGGUAAUGGCGAAUGGGACCCA [G1A G53A], the self-cleavage was 0.0449.

With AGCCGGCAUGGUCCCAGCCUCCUCGCUGGCGCCGGCUGGGCAACAUUCCGAGGGGACCGUCCCCUCGGUAAUGGCGAAUAGGACCCA [G1A G80A], the self-cleavage worked out at 0.0455.

As for AGCCGGCAUGGUCCCAGCCUCCUCGCUGGCGCCGGCUGGGCAACAUUCCGAUGGGACCGUCCCCUCGGUAAUGGCGAAUGGGACCCA [G1A G52U], the self-cleavage amounted to 0.162.

For AGCCGGCAUGGUCCCAGCCUCCUCGCUGGCGCCGGCUGGGCAACAUUCCGACGGGACCGUCCCCUCGGUAAUGGCGAAUGGGACCCA [G1A G52C], the self-cleavage was 0.237.

On to AGCCGGCAUGGCCCCAGCCUCCUCGCUGGCGCCGGCUGGGCAACAUUCCGAGGGGACCGUCCCCUCGGUAAUGGCGAAUGGGACCCA [G1A U12C], for which the self-cleavage was 0.

Turning to AGCCGGCAUGGGCCCAGCCUCCUCGCUGGCGCCGGCUGGGCAACAUUCCGAGGGGACCGUCCCCUCGGUAAUGGCGAAUGGGACCCA [G1A U12G], the self-cleavage was 0.554.

As for AGCCGGCAUGGUCCCAGCCUCCUCGCUGGCGCCGGCUGGGCAACAUUCCGAGGGGACCGUCCCCUAGGUAAUGGCGAAUGGGACCCA [G1A C66A], the self-cleavage was 0.26.

For ACCCGGCAUGGUCCCAGCCUCCUCGCUGGCGCCGGCUGGGCAACAUUCCGAGGGGACCGUCCCCUCGGUAAUGGCGAAUGGGACCCA [G1A G2C], the self-cleavage was determined as 0.0773.

As to AGCCGGCAUGGUCCCAGCCACCUCGCUGGCGCCGGCUGGGCAACAUUCCGAGGGGACCGUCCCCUCGGUAAUGGCGAAUGGGACCCA [G1A U20A], the self-cleavage worked out at 0.0594.

AGCCGGCAUGGUCCCAGCCCCCUCGCUGGCGCCGGCUGGGCAACAUUCCGAGGGGACCGUCCCCUCGGUAAUGGCGAAUGGGACCCA [G1A U20C]: the self-cleavage is 0.

With AGCCGGCAUGGUCCCAGCCUCCUCGCUGGCGCCGGCUGGGCAACAUUCCGAGGGGACCGUCCCCUCGGUAAUGACGAAUGGGACCCA [G1A G74A], the self-cleavage turned out to be 0.0287.

AGCCGGCAUGGUCCCAGCCUCCUCGCUGGCGCCGGCUGGGCAACAUUCCGAGGGGACCGUCCCCGCGGUAAUGGCGAAUGGGACCCA [G1A U65G]: the self-cleavage was 0.

As to AGCCGGCAUGGUCCCAGCCUGCUCGCUGGCGCCGGCUGGGCAACAUUCCGAGGGGACCGUCCCCUCGGUAAUGGCGAAUGGGACCCA [G1A C21G], the self-cleavage was determined as 0.0489.

For AGCCGGCAUGGUCCCAGCCUCCUCGCUGGCGCCGGCUGGGCAACAUUCCGAGGGGACAGUCCCCUCGGUAAUGGCGAAUGGGACCCA [G1A C58A], the self-cleavage is 0.0978.

On to AGCCGGCAUGGUCCCAGCCUCCUCGCUGGCGCCGGCUGGGCAACAUUCCCAGGGGACCGUCCCCUCGGUAAUGGCGAAUGGGACCCA [G1A G50C], for which the self-cleavage was determined as 0.302.

Consider AGCCGGCAUGGUCCCAGCCUCCUCGCUGGCGCCGGCUGGGCAACAUUCCUAGGGGACCGUCCCCUCGGUAAUGGCGAAUGGGACCCA [G1A G50U], for which the self-cleavage was determined as 0.128.

Consider AGCCGGCAUGGUCCCAGCCUCCUCGCUGACGCCGGCUGGGCAACAUUCCGAGGGGACCGUCCCCUCGGUAAUGGCGAAUGGGACCCA [G1A G29A], for which the self-cleavage stood at 0.0615.

Regarding AGCCGGCAUGGUCCCAGACUCCUCGCUGGCGCCGGCUGGGCAACAUUCCGAGGGGACCGUCCCCUCGGUAAUGGCGAAUGGGACCCA [G1A C18A], the self-cleavage was 0.113.

AGCCGGCAUGGUCCCAGCCUCCUCGCUGGCGCCGGCUGGGCAACAUUCCGAGGGGACCGUCCCCUCGGUAAUAGCGAAUGGGACCCA [G1A G73A]: the self-cleavage was 0.128.

As to AGCCGGCAUGGUCCCAGCCUCCUCGCUGGCGCCGGCUGGGCAACAUUCCGAGGGGACCGUCCCCUCGGUAAUGGCGAAUGUGACCCA [G1A G81U], the self-cleavage worked out at 0.0426.

Turning to AGCCGGCAUGGUCCCAGCCUCCUCGCUGGCGCCGGCUGGGCAACAUUCCGAGGGGACCGUCCCCUCGGUAAUGGCGAAUGCGACCCA [G1A G81C], the self-cleavage stood at 0.269.

For the variant AGCCGGCAUGGUCCCAGCCUCCUCGCUCGCGCCGGCUGGGCAACAUUCCGAGGGGACCGUCCCCUCGGUAAUGGCGAAUGGGACCCA [G1A G28C], the self-cleavage stood at 0.219.

For AGCCGGCAUGGUCCCAGCCUCCUCGCUUGCGCCGGCUGGGCAACAUUCCGAGGGGACCGUCCCCUCGGUAAUGGCGAAUGGGACCCA [G1A G28U], the self-cleavage is 0.106.

For the variant AGCCGGCAUGGUCCCAGCCUCCUCGCUGGCGCCGGCUGGGCAACAUUCCGAGGGGACCGUCCCCUCGGUAAUGGCGAAUGGGCCCCA [G1A A83C], the self-cleavage was 0.138.
